Measurements as given in PMC3961337 (2014).

Key:
[1] = biological target: T1, zinc-binding anti-sigma (ZAS) protein RsrA (S. coelicolor M145, UniProt Q7AKG8 1-105); assay: BLI
T1 chain: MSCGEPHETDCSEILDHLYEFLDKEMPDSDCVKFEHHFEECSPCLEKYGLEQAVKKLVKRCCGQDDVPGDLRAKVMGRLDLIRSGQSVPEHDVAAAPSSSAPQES

[2] = biological target: T2, rsrA-cfp-pET28a (+) protein (RCP) (S. coelicolor M145, UniProt Q7AKG8 1-105); assay: BLI
T2 chain: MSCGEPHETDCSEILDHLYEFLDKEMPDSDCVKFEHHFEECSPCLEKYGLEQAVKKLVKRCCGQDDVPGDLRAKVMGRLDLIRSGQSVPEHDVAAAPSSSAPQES

Binder	Kd [1] [nM]	Kd [2] [nM]
sigma factor σ^R (natural protein, biotinylated before capture on streptavidin biosensor tips) not shown	47	72
sigR-yfp-pET28a (+) protein (SYP) (natural protein, biotinylated for the biolayer interferometry only) not shown	52	
